Target: T1, full length FH (Homo sapiens, UniProt P08603)
T1 construct: Purification of Full-Length Factor H from Human Serum; from tissue; host or cells: human serum
Assay: Binding of full length FH to untreated and N-glycosidase F-treated FMOD
Details: p<10-4 for all data points above zero
Protocol: FMOD was isolated from bovine articular cartilage (Heinghrd et al., (1986) J. Biol. Chem. 261, 13866-13872) and recombinant CRP was obtained from Calbiochem. Deglycosylated FMOD was prepared by treatment with N-glycosiadase F (Roche Applied Science) as previously described (Sjöberg et al. (2005) J. Biol. Chem. 280, 32301-32308).
CRP or FMOD was coated overnight at 4° C. onto microtiter plates (Maxisorp, Nunc) at a concentration of 10 μg/ml in 75 mM sodium carbonate buffer, pH 9.6. Wells treated only with coating buffer or 1% (w/v) BSA (Sigma) in coating buffer (for the assays involving FMOD) were used as negative controls. Between each step the wells were washed extensively with 50 mM Tris-HCl, 150 mM NaCl, 0.1% (v/v) Tween 20, pH 7.5. All wells were blocked with 1% (w/v) BSA (Sigma) in phosphate buffered saline (Invitrogen) for 1 hour at 37° C. […] The amount of bound protein was assessed using a goat polyclonal anti-FH antibody (Quidel, Cat # A312) followed by HRP-labeled anti-goat secondary antibodies (Dako) and the OPD development kit (Dako). Detection of biotinylated protein was performed using a StreptABComplex/HRP-kit from Dako, and in both cases the absorbance at 490 nm was measured to quantify protein binding.

T1 sequence (P08603 19-1231): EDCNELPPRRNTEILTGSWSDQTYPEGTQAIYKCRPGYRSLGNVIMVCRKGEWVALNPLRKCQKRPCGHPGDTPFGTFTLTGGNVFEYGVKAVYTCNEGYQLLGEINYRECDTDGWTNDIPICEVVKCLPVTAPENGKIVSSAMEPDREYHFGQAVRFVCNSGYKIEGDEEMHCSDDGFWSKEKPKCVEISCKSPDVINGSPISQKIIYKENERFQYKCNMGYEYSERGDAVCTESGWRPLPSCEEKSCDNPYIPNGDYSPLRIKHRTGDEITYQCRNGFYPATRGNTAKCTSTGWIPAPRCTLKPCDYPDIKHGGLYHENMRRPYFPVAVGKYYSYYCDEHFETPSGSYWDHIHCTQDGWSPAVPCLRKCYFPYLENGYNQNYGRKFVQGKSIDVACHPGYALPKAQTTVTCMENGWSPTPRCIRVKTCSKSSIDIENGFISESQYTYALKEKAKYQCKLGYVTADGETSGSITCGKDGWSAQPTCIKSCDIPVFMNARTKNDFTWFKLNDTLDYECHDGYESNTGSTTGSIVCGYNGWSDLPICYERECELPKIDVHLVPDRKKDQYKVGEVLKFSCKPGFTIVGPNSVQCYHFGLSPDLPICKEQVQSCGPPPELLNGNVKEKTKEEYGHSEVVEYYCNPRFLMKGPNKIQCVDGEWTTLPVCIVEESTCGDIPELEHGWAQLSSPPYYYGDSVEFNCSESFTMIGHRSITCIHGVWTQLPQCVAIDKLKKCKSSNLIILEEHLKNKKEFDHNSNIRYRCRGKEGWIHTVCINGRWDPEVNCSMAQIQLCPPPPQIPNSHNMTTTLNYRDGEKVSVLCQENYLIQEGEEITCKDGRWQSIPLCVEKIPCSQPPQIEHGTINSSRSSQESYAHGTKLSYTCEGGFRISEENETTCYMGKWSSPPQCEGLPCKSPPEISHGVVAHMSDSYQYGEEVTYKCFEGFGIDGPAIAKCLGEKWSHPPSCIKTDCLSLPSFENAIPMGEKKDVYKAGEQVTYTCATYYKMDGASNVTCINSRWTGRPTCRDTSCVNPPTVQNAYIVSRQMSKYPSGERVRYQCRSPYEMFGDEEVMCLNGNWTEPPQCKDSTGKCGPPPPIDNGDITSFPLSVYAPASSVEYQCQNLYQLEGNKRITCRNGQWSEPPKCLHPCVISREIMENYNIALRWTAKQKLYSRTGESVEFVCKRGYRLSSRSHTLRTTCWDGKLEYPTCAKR

binding of FH compared to keratan sulphate-containing FMOD: significantly better
B1: deglycosylated FMOD: fibromodulin from bovine articular cartilage treated with N-glycosidase F to remove N-linked oligosaccharides including keratan sulphate (protein)
chain: QYEEDSHWWFQFLRNQQSTYDDPYDPYPYEPYEPYPYGGEEGPAYAYGSPPQPEPRDCPQECDCPPNFPTAMYCDNRNLKYLPFVPSRMKYVYFQNNQISSIQEGVFDNATGLLWIALHGNQITSDKVGKKVFSKLRHLERLYLDHNNLTRIPSPLPRSLRELHLDHNQISRVPNNALEGLENLTALYLHHNEIQEVGSSMKGLRSLILLDLSYNHLRKVPDGLPSALEQLYLEHNNVFSVPDSYFRGSPKLLYVRLSHNSLTNNGLASNTFNSSSLLELDLSYNQLQKIPPVSTNLENLYLQGNRINEFSISSFCTVVDVMNFSKLQVLRLDGNEIKRSAMPADAPLCLRLASLIEI

Source: patent US7829301B2, “Screening assays for binding antagonists of the AMD-associated variant of factor H (H384)” (The University of Manchester, priority 2006, dated 2010)
